Test results reported in patent US20050053592.

T1: endogenous Sav (Salvador), Q9VCR6
T1 chain: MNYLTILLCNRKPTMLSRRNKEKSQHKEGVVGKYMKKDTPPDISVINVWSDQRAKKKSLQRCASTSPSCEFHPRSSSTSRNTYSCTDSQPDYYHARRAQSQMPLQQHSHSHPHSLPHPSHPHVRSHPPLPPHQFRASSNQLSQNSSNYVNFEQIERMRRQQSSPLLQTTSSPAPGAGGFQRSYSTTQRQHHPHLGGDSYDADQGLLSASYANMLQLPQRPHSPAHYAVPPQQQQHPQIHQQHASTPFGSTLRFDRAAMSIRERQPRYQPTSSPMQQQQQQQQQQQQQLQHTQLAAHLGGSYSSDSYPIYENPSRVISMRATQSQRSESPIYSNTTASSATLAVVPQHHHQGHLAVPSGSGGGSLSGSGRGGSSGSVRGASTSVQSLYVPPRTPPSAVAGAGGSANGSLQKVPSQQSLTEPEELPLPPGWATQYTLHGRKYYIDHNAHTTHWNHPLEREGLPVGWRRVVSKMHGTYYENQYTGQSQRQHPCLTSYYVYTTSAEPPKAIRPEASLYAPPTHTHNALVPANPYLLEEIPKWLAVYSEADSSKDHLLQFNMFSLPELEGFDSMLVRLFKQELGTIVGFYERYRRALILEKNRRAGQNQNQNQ

T2: GST-Wts^68-414, Q9VA38
T2 chain: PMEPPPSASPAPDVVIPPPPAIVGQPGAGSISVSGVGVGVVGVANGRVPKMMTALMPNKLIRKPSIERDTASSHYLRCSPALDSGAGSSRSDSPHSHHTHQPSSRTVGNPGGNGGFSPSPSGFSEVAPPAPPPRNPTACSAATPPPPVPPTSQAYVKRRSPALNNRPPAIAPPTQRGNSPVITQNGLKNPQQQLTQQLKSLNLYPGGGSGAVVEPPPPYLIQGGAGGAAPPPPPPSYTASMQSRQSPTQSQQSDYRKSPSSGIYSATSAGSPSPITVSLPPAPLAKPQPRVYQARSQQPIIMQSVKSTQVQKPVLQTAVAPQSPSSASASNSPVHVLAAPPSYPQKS

T3: GST-Sav^362-607, Q9VCR6
T3 chain: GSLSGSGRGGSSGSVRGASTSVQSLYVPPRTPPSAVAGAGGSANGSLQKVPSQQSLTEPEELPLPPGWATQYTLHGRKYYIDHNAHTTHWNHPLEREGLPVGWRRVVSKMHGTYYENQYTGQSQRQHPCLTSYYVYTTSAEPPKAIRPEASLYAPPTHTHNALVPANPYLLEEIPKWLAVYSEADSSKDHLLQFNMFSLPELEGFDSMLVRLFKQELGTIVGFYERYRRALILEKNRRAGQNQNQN

B1: kinase dead Hpo^K71R mutant (UAS-hpo^K71R) (protein)
chain: MSEPEVTSVVDMKSPNISSSCSFFKLKKLSEESLLQPPEKVFDIMYKLGEGSYGSVYKAVHKESSSIVAIRLVPVESDLHEIIKEISIMQQCDSPYVVRYYGSYFKQYDLWICMEYCGAGSVSDIMRLRKKTLTEDEIATILSDTLQGLVYLHLRRKIHRDIKAANILLNTEGYAKLADFGVAGQLTDTMAKRNTVIGTPFWMAPEVIEEIGYDCVADIWSLGITALEMAEGKPPYGEIHPMRAIFMIPQKPPPSFREPDRWSTEFIDFVSKCLVKEPDDRATATELLEHEFIRNAKHRSILKPMLEETCAIREQQRANRSFGGVLAASQAKSLATQENGMQQHITDNAFMEDPGTLVPEKFGEYQQSSASDATMIAHAEQGVDEGTLGPGGLRNLSKAAAPAAASSAASPLDMPAVDSGTMVELESNLGTMVINSDSDDSTTAKNNDDQKPRNRYRPQFLEHFDRKNAGDGRGDEKPIATEYSPAAAEQQQQQQQQQQQQQQDEQHLASGANDLNNWEHNMEMQFQQISAINQYGLQQHQQQQQVLMAYPLMNEQLIALNNQPNLLLSNAAPMGQQGIPAAAPAQPPPAYQNQHMHTQSHAYVEGEFEFLKFLTFDDLNQRLCNIDHEMELEIEQLNKKYNAKRQPIVDAMNAKRKRQQNINNNLIKI
B2: Myc-tagged Hpo (protein)
chain: MEQKLISEEDLNESEPEVTSVVDMKSPNISSSCSFFKLKKLSEESLLQPPEKVFDIMYKLGEGSYGSVYKAVHKESSSIVAIKLVPVESDLHEIIKEISIMQQCDSPYVVRYYGSYFKQYDLWICMEYCGAGSVSDIMRLRKKTLTEDEIATILSDTLQGLVYLHLRRKIHRDIKAANILLNTEGYAKLADFGVAGQLTDTMAKRNTVIGTPFWMAPEVIEEIGYDCVADIWSLGITALEMAEGKPPYGEIHPMRAIFMIPQKPPPSFREPDRWSTEFIDFVSKCLVKEPDDRATATELLEHEFIRNAKHRSILKPMLEETCAIREQQRANRSFGGVLAASQAKSLATQENGMQQHITDNAFMEDPGTLVPEKFGEYQQSSASDATMIAHAEQGVDEGTLGPGGLRNLSKAAAPAAASSAASPLDMPAVDSGTMVELESNLGTMVINSDSDDSTTAKNNDDQKPRNRYRPQFLEHFDRKNAGDGRGDEKPIATEYSPAAAEQQQQQQQQQQQQQQDEQHLASGANDLNNWEHNMEMQFQQISAINQYGLQQHQQQQQVLMAYPLMNEQLIALNNQPNLLLSNAAPMGQQGIPAAAPAQPPPAYQNQHMHTQSHAYVEGEFEFLKFLTFDDLNQRLCNIDHEMELEIEQLNKKYNAKRQPIVDAMNAKRKRQQNINNNLIKI

Experiments:
[1] = target: T1, endogenous Sav (Salvador), Q9VCR6
[2] = target: GST-Tsc1 (control GST fusion protein)
GST-Wts^68-414, Q9VA38 = target: T2, GST-Wts^68-414, Q9VA38
GST-Sav^362-607, Q9VCR6 = target: T3, GST-Sav^362-607, Q9VCR6

Protein	increase in wing size (MS1096 Gal4 driver) [1]	in vitro kinase assay (32P phosphorylation of the GST substrate) [2]	in vitro kinase assay (32P phosphorylation of the GST substrate) (GST-Wts^68-414, Q9VA38)	in vitro kinase assay (32P phosphorylation of the GST substrate) (GST-Sav^362-607, Q9VCR6)
B1	expression of the kinase dead Hpo^K71R mutant results in 35% increase in wing size			
B2		no signals were detected using a control substrate	a GST fusion protein containing this region of Wts was phosphorylated by Hpo	myc-tagged Hpo protein specifically phosphorylated a GST fusion protein containing the Hpo-binding region of Sav
